Data set [1] concerns the molecule itself. Put plainly: crystal structure.
Data set [2] concerns the molecule itself. Put plainly: crystal structure. This is another data set of the same source.
The target in data set [3] is T1, full-length GluD2 (GluD2FL) (human, UniProt O43424 24-1007).
T1 sequence (looked up): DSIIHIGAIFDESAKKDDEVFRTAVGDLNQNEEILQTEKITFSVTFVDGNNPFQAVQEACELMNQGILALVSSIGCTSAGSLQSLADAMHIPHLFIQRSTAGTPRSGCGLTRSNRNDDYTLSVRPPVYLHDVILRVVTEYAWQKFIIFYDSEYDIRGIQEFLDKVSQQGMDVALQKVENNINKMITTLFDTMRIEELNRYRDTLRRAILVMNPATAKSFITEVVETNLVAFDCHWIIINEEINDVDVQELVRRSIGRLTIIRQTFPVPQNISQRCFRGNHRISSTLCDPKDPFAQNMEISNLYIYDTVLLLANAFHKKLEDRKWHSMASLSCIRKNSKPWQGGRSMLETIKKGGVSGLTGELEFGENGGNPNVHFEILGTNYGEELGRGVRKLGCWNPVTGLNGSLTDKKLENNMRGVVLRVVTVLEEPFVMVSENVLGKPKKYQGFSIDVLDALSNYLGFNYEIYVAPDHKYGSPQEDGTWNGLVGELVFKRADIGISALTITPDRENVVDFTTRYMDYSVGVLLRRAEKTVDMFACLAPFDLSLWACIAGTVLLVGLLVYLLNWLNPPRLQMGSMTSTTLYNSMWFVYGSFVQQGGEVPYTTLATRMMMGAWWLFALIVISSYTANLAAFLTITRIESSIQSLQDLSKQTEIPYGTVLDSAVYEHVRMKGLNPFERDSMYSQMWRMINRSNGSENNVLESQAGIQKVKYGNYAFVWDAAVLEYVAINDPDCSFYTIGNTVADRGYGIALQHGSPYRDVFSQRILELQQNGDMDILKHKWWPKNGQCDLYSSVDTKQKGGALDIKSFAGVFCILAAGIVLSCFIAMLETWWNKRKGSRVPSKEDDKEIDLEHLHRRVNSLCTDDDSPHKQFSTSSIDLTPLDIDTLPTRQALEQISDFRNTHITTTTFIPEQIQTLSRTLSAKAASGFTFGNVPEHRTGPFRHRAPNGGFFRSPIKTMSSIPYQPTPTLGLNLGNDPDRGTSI
The experiment in a line: SPR. A general note: SPR reads the build-up and loss of mass on a sensor chip optically.

This is an account of results in publication PMC5291321 (Science (New York, N.Y.), 2016).

As a reminder, the stoichiometry N is the number of molecules, sites or subunits per partner or assembly. Usually Kd stands for a measure of binding affinity in units of concentration. Low values mean tighter binding, high ones weaker binding.

Like-named read-outs stand apart in the source and are kept apart here.

B1: GluD2 amino-terminal domain (GluD2ATD) (domain or fragment, human)
chain: DSIIHIGAIFDESAKKDDEVFRTAVGDLNQNEEILQTEKITFSVTFVDGNNPFQAVQEACELMNQGILALVSSIGCTSAGSLQSLADAMHIPHLFIQRSTAGTPRSGCGLTRSNRNDDYTLSVRPPVYLHDVILRVVTEYAWQKFIIFYDSEYDIRGIQEFLDKVSQQGMDVALQKVENNINKMITTLFDTMRIEELNRYRDTLRRAILVMNPATAKSFITEVVETNLVAFDCHWIIINEEINDVDVQELVRRSIGRLTIIRQTFPVPQNISQRCFRGNHRISSTLCDPKDPFAQNMEISNLYIYDTVLLLANAFHKKLEDRKWHSMASLSCIRKNSKPWQGGRSMLETIKKGGVSGLTGELEFGENGGNPNVHFEILGTNYGEELGRGVRKLGCWNPVTGLNGSLTDKKLENNMRG
For B1, the entries for the “stoichiometry N” value in “crystal structure [1]” and in the data set “crystal structure [2]” were 2 and 4, respectively.

B2: full-length Cbln1 (Cbln1FL) (natural protein, human, UniProt P23435 22-193, looked up)
chain: QNETEPIVLEGKCLVVCDSNPTSDPTGTALGISVRSGSAKVAFSAIRSTNHEPSEMSNRTMIIYFDQVLVNIGNNFDSERSTFIAPRKGIYSFNFHVVKVYNRQTIQVSLMLNGWPVISAFAGDQDVTREAASNGVLIQMEKGDRAYLKLERGNLMGGWKYSTFSGFLVFPL
Consider B2, for which the dissociation constant Kd in data set [3] was ~125 nM.

B3: mouse GluD1 amino-terminal domain (GluD1ATD) (domain or fragment)
chain: DSIIHIGAIFEENAAKDDRVFQLAVSDLSLNDDILQSEKITYSIKVIEANNPFQAVQEACDLMTQGILALVTSTGCASANALQSLTDAMHIPHLFVQRNPGGSPRTACHLNPSPDGEAYTLASRPPVRLNDVMLRLVTELRWQKFVMFYDSEYDIRGLQSFLDQASRLGLDVSLQKVDKNISHVFTSLFTTMKTEELNRYRDTLRRAILLLSPQGAHSFINEAVETNLASKDSHWVFVNEEISDPEILDLVHSALGRMTVVRQIFPSAKDNQKCMRNNHRISSLLCDPQEGYLQMLQISNLYLYDSVLMLANAFHRKLEDRKWHSMASLNCIRKSTKPWNGGRSMLDTIKKGHITGLTGVMEFREDSSNPYVQFEILGTTYSETFGKDMRKLATWDSEKGLNGSLQERPMGSRLQG
As for B3, in the data set “crystal structure [1]”, the “stoichiometry N” value stood at 2.
